Results: patent US12723255B2, “Herbicide tolerance genes and methods of use thereof” (priority 2014, dated 2026)
Numbering of substitutions follows the chain as printed. Like-named read-outs stand apart in the source and are kept apart here.

B1: MON-HT13: engineered oxygenase protein, amino acid sequence SEQ ID NO:47 (protein)
chain: MHAALTPLTNKYRFIDVQPLTGVLGAEITGVDLREPLDDSTWNEILDAFHTYQVIYFPGQAITNEQHIAFSRRFGPVDPVPILKSIEGYPEVQMIRREANESSRYIGDDWHADSTFLDAPPAAVVMRAIEVPEYGGDTGFLSMYSAWETLSPTMQATIEGLNVVHSATKVFGSLYQATNWRFSGTSVKVMDVDAGDRETVHPLVVTHPVTGRRALYCNQVYCQKIQGMTDAESKSLLQFLYEHATQFDFTCRVRWKKDQVLVWDNLCTMHRAVPDYAGKFRYLTRTTVAGDKPSR
B2: MON-HT15: engineered oxygenase protein, amino acid sequence SEQ ID NO:49 (protein)
chain: B1 chain with F14H, T153A, G184N, V220I
B3: MON-HT17: engineered oxygenase protein, amino acid sequence SEQ ID NO:51 (protein)
chain: B1 chain with G184N

Assays:
[1] = enzyme activity assay at 23° C. with purified enzyme; assay type: biochemical; conditions: for activity with fluroxypyr as the substrate / activity with triclopyr as the substrate: not robust enough to quantify; for MCPA Km / MCPA Vmax / Mecoprop Km: percentage of wild-type RdpA, set at 100%
Description: The enzyme activity of MON-HT protein variants with triclopyr, fluroxypyr, MCPA, MCPB, mecoprop, as substrates was determined using the enzyme activity assay conducted at 23° C. with purified enzyme. The activity was recorded as the maximum activity as a percentage of the wild-type RdpA enzyme's activity, which was set at 100%. […] The enzymatic activity with mecoprop as a substrate was reduced for each of the MON-HT1, MON-HT13, MON-HT15, and MON-HT17 variants compared to the wild-type RdpA enzyme. An unexpected result was that enzymatic activity with MCPA as a substrate was roughly 6-fold greater for MON-HT1, and approximately 10-fold greater for MON-HT13, MON-HT15, and MON-HT17 compared to the wild-type RdpA enzyme.

[2] = assay type: physicochemical; conditions: Table 11 series
Description: A protein melting analysis was also conducted. For the protein melting determinations, purified enzyme was added to 96-well microtiter plates in standard storage buffer (30 mM Tris pH7.5, 150 mM NaCl) with or without 50 uM Fe2+ and 1.0 mM aKG. Protein unfolding was then detected with SYPRO® orange protein gel stain (Invitrogen™ catalog #S6651, Life Technologies, Grand Island, NY) in a BioRad CFX96™ Real time PCR machine (BioRad, Hercules, CA) with readings taken between 10° C. to 95° C. in 0.5° C. steps. […] In contrast, 50 uM Fe2+ and 1.0 mM aKG had little effect on the stability of any of the engineered proteins. MON-HT55, MON-HT3, MON-HT4, MON-HT6, and MON-HT10 had melting temperatures in the range of 41° C. to 48° C., which is below the melting temperature of the wild-type enzyme. MON-HT1, MON-HT2, MON-HT5, MON-HT7, MON-HT8, and MON-HT9 had melting temperatures between 58° C. and 67° C., which is 8° C. to 17° C. higher than the wild-type enzyme. For MON-HT7 and MON-HT1, the difference in melting point was 11° C. in buffer without Fe2+ and aKG and 8° C. in buffer with Fe2+ and aKG. This was surprising since there are only four amino acid differences between the two enzymes.
A protein melting analysis was conducted as detailed above. The melting temperatures of MON-HT13, MON-HT15, and MON-HT17 was similar to the melting temperature of MON-HT1 with T1/2 in buffer in the range of 55-58° C., and with T1/2 in buffer plus Fe2+ and aKG in the range of 60-62° C.

[3] = system: transgenic soybean plants; test: R0 soybean 2,4-D spray test of 2,4-D optimized variants; assay type: in vivo; conditions: for tolerance to 2,4-D treatment: 2× application rate, soy
Text: An additional five engineered proteins optimized for activity for 2,4-D were then selected for analysis in transgenic soybean. DNA constructs were produced for expressing MON-HT13 (SEQ ID NO:47), MON-HT14 (SEQ ID NO:48), MON-HT15 (SEQ ID NO:49), MON-HT17 (SEQ ID NO:51), and MON-HT18 (SEQ ID NO:52) with codon usage optimized for dicot expression. The operably linked expression elements (promoter, leader, intron, CTP, and 3′UTR) were identical in all of the constructs. Leaf samples were taken from R0 plantlets and single copy plants were identified using a PCR-based assay. When the single-copy R0 plants had approximately two to three trifoliate leaves, they were treated with either 1.5 lb ae/acre (2×) or 3.0 lb ae/acre (4×) of 2,4-D. Seven days after herbicide application, the plants were scored for herbicide injury based on the percent area of the plant showing injury, as indicated above.

[4] = kinetic analysis, non-endpoint assay at 23° C.; assay type: biochemical; conditions: for Vmax 2,4-D / Km / Vmax Quizalofop: Table 10 series, unit as defined
Text: For the fifth screen, recombinant protein for each of the eleven engineered proteins was produced and purified for an in-depth biochemical analysis. This biochemical analysis included: (1) kinetic analysis (Vmax and Km), (2) activity assays over a range of temperatures, (3) protein melting analysis, (4) activity on additional AOPP herbicides substrates, and (5) mass spectrometry analysis on peptides to confirm identity. The biochemical analyses were also done with purified recombinant wild-type protein and MON-HT55 protein for comparison. For the kinetic analysis, a non-endpoint assay was conducted at 23° C. with either quizalofop-P or 2,4-D as substrate. The recombinant proteins for these assays were produced in bacteria and purified using a 6-His tag fused at the C-terminal end of the protein. Results of the kinetic analysis with either quizalofop-P or 2,4-D as substrate are presented for ten of the engineered proteins, wild-type protein, and MON-HT55 protein in Table 7 (standard error is shown in parenthetical). Vmax is expressed as specific activity, umol herbicide product mg enzyme-1 min-1; Km expressed as mM herbicide substrate. […] The differentiation of the protein kinetics for MON-HTI and MON-HT7 were surprising because there are only four amino acid differences between MON-HT1 and MON-HT7. Specifically, MON-HT1 has the following amino acids at the indicated position: 182; F105; T112; and V273, and MON-HT7 has the following amino acids at the indicated position: L82; V105; S112; and A273.
Kinetic analysis using a non-endpoint assay was conducted at 23° C. with either quizalofop-P or 2,4-D as substrate, as detailed above for purified protein of the wild-type enzyme, MON-HT1, MON-HT13, MON-HT15, and MON-HT17.

[5] = 2,4-D rate 2X (1.5 lb ae/acre), single copy R0 soy, seven days after application
[6] = 23° C., read-out: Km Quizalofop

Molecule	activity with MCPB as the substrate [1]	enzymatic activity with MCPA greater compared to the wild-type RdpA enzyme [1]	activity with fluroxypyr as the substrate [1]	activity with triclopyr as the substrate [1]	MCPA Km [1] [%]	MCPA Vmax [1] [%]	Mecoprop Km [1] [%]	Melting temp, Buffer [2] [°C]	Melting temp, Buffer plus Fe2+ and aKG [2] [°C]	Events with 20-50% injury [3, 5]	Events with <20% injury [3, 5]	tolerance to 2,4-D treatment [3]	enzymatic activity with quizalofop compared with MON-HT1 [4]	Vmax 2,4-D [4]	Km ([4]; read-out: Km 2,4-D) [µM]	Vmax Quizalofop ([4]; 23° C.)	Km [4, 6] [µM]
B1	no detectable activity	approximately 10 fold	detectable activity	detectable activity	68	1800	92	57	62	1	12	excellent tolerance	roughly similar to the activity of MON-HT1	3.38 (0.05) umol herbicide product mg enzyme-1 min-1	80	1.51 (0.05) umol herbicide product mg enzyme-1 min-1	120
B2	no detectable activity	approximately 10 fold	detectable activity	detectable activity	59	1300	57	55	60	–	5	excellent tolerance	roughly similar to the activity of MON-HT1	3.53 (0.04) umol herbicide product mg enzyme-1 min-1	70	1.52 (0.06) umol herbicide product mg enzyme-1 min-1	120
B3	no detectable activity	approximately 10 fold	detectable activity	detectable activity	62	1400	65	57	61	–	12	excellent tolerance	roughly similar to the activity of MON-HT1	2.91 (0.04) umol herbicide product mg enzyme-1 min-1	70	1.53 (0.05) umol herbicide product mg enzyme-1 min-1	140
